# From US20140286957A1 (Teva, published 2014)
# “And” between values parts separate entries of the source, which are not always exact repeats. Equal entries are not always repeated. Where two headings read alike, the source gives them in different places.
# What was measured:
# [1] = molecular target: T1, Human CD1d on cells (human, UniProt P15813 20-335); assay: cell-based or functional assay
# T1 sequence (looked up): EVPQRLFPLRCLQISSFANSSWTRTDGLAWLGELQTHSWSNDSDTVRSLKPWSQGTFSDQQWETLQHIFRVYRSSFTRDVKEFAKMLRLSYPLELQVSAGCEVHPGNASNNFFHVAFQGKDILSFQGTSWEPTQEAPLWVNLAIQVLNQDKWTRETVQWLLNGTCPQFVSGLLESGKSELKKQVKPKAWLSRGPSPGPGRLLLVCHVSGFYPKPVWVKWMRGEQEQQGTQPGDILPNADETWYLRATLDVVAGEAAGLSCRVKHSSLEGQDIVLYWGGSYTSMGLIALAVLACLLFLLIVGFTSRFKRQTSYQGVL
# [2] = molecular target: T1, Human CD1d on cells; assay: cell-based or functional assay; remark: listed apart in the source
# [3] = molecular target: T1, Human CD1d on cells; assay: cell-based or functional assay; remark: listed apart in the source
# [4] = molecular target: T1, Human CD1d on cells; assay: cell-based or functional assay; remark: listed apart in the source
# [5] = molecular target: T1, Human CD1d on cells; assay: cell-based or functional assay; remark: listed apart in the source
# [6] = molecular target: T1, Human CD1d on cells; assay: cell-based or functional assay; remark: listed apart in the source
# [7] = molecular target: T1, Human CD1d on cells; assay: cell-based or functional assay; remark: listed apart in the source
# [8] = molecular target: T1, Human CD1d on cells; assay: cell-based or functional assay; remark: listed apart in the source
# [9] = molecular target: T1, Human CD1d on cells; assay: cell-based or functional assay; remark: listed apart in the source
# [10] = molecular target: T1, Human CD1d on cells; assay: cell-based or functional assay; remark: listed apart in the source
# [11] = molecular target: T2, CD1d tetramer loaded with α-GalCer (ProImmune) (UniProt P15813 20-301, limits assumed); assay: flow cytometry, inhibition of CD1d tetramer (10 nM) binding to NKTCR on J.RT3-T3.5 cells
# T2 construct: Bought reagent; also called fluorochrome-conjugated CD1d tetramer
# T2 sequence (looked up): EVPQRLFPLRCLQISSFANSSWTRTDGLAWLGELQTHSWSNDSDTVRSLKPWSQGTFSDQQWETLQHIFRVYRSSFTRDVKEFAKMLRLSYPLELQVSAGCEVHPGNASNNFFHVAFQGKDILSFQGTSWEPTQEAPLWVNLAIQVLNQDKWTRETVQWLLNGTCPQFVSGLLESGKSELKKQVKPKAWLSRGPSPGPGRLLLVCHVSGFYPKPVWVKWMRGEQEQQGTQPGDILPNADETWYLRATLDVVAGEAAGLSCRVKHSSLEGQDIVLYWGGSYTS
# Procedure: To perform the assay, antibodies were prepared at decreasing concentrations from 10 μg/mL in 0.1% bovine serum albumin (BSA) in cold 1×PBS at pH 7.4. […] Wash steps were done in 0.1% BSA in 1×PBS. Data were acquired by flow cytometry and analyzed using flow cytometry analysis software (FlowJo® Treestar, Inc.).
# [12] = molecular target: T1, Human CD1d on cells; assay: cell-based or functional assay; remark: listed apart in the source
# [13] = molecular target: T1, Human CD1d on cells; assay: cell-based or functional assay; remark: listed apart in the source
binder,measurement,setting,value
"401.11 (antibody, V domains shown) VH: QVQLVGSGGGLVKPGRSLRLSCAASGFTFDDYAMHWVRQAPGKGLEWVATIIWNSAIIGYADSVKGRFIVSRDNAKNSLYLQMNSLRAEDMALYYCAKDMCSSSGCPDGYFDSWGQGTLVTVSS VL: DIQMTQSPSSVSASVGDRVTITCRASQHISSWLAWYQQKPGKAPNLLIYAASSLQSGVSSRFSGSGSGTDFTLTISSLQPEDFATYYCQQANRFPLTFGGGTKLEIKR","fold potency against 51.1, IL-2 release",[1],~15 fold
same,fold potency against antibody 42 (C24:1 βGluCer),[1],≤ 58 fold
same,fold potency against antibody 42 (THP-1 assay),[1],≤ 114 fold
same,fold potency against antibody 42 (moDC assay),[1],≤ 200 fold
same,"fold potency against antibody 42, IL-2 release",[1],~20 fold
same,fold potency against antibody 51.1 (C24:1 βGluCer),[1],≤ 47 fold
same,IL-2 release EC50 (U-937 + NKTCR cell line),[2],5.3 ng/mL
same,IFN-γ EC50 (primary CD14+ cells),[3],6.8 ng/mL
same,IL-4 EC50 (primary CD14+ cells),[3],5.9 ng/mL
same,IL-5 EC50 (primary CD14+ cells),[3],6.2 ng/mL
same,IL-13 EC50 (primary CD14+ cells),[3],12.1 ng/mL
same,NKT IFN-γ EC50 (THP-1),[4],3.75 ng/mL
same,NKT IFN-γ EC50 (moDC),[4],0.857 ng/mL
same,NKT IFN-γ EC50 (THP-1),[5],2.33 ng/mL
same,NKT IFN-γ EC50 (moDC),[5],23.5 ng/mL
same,NKT IL-4 EC50 (THP-1),[5],1.36 ng/mL
same,NKT IL-4 EC50 (moDC),[5],12.8 ng/mL
same,NKT IL-13 EC50 (THP-1),[5],3.29 ng/mL
same,IFN-γ EC50 (THP-1),[6],3.8 ng/mL
same,IL-4 EC50 (THP-1),[6],1.9 ng/mL
same,IL-5 EC50 (THP-1),[6],1.7 ng/mL
same,IL-13 EC50 (THP-1),[6],2.5 ng/mL
same,NKT IL-4 EC50 (moDC),[7],7.63 ng/mL and 6.54 ng/mL
same,NKT IL-13 EC50 (moDC),[7],22.8 ng/mL and 19.6 ng/mL
same,"IFN-γ EC50 (C24:1 βGluCer, moDC)",[8],2.38 ng/mL
same,"IL-4 EC50 (C24:1 βGluCer, moDC)",[8],1.45 ng/mL
same,"IL-5 EC50 (C24:1 βGluCer, moDC)",[8],1.23 ng/mL
same,"IL-13 EC50 (C24:1 βGluCer, moDC)",[8],5.55 ng/mL
same,"TNF-α EC50 (C24:1 βGluCer, moDC)",[8],1.79 ng/mL
same,NKT IFN-γ EC50 (moDC),[9],12.4 ng/mL
same,NKT IL-4 EC50 (moDC),[9],1.98 ng/mL
same,NKT IL-5 EC50 (moDC),[9],2.25 ng/mL
same,NKT IL-13 EC50 (moDC),[9],2.36 ng/mL
same,NKT IFN-γ EC50 (moDC),[10],39.4 ng/mL
same,NKT IL-4 EC50 (moDC),[10],17.3 ng/mL
same,NKT IL-5 EC50 (moDC),[10],47.5 ng/mL
same,NKT IL-13 EC50 (moDC),[10],83.1 ng/mL
same,NKT TNF EC50 (moDC),[10],16.9 ng/mL
same,EC50,[11],284 ng/mL
same,NKT IFN-γ EC50 (THP-1),[12],55.2 ng/mL
same,NKT IL-4 EC50 (THP-1),[12],2.98 ng/mL
same,NKT IL-5 EC50 (THP-1),[12],6.96 ng/mL
same,NKT IL-13 EC50 (THP-1),[12],27.2 ng/mL
same,NKT TNF EC50 (THP-1),[12],9.18 ng/mL
same,NKT IFN-γ EC50 (THP-1),[13],3.75 ng/mL
same,NKT IFN-γ EC50 (moDC),[13],0.857 ng/mL
same,NKT IL-4 EC50 (THP-1),[13],2.88 ng/mL
same,NKT IL-4 EC50 (moDC),[13],6.86 ng/mL
